{
  "source": "patent US11512128B2",
  "about": "“VEGF/DLL4 binding agents and uses thereof” (MEREO BIOPHARMA 5, INC., priority 2011, dated 2022)",
  "key": {"mouse VEGF165": {"target": "T1, mouse VEGF165 (Mus musculus, UniProt Q00731)", "T1 sequence (Q00731 27-190 isoform Q00731-2)": "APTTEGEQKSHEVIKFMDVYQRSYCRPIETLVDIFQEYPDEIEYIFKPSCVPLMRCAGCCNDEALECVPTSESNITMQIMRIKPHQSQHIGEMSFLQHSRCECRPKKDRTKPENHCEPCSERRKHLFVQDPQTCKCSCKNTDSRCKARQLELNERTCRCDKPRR", "assay": "Biacore binding affinity (KD) to mouse VEGF", "protocol": "(§1) The KDs of parental antibodies anti-VEGF 219R45 (IgG format), anti-DLL4 21R79 (IgG format), anti-DLL4 21M18 (IgG format) and bispecific antibodies 219R45-MB-21M18 and 219R45-MB-21R79 were determined using a Biacore 2000 system from Biacore LifeSciences (GE Healthcare). Recombinant human DLL4-Fc or mouse DLL4-Fc proteins were immobilized on CM5 carboxyl chips using standard amine-based chemistry (NHS/EDC) and blocked with ethanolamine. Recombinant human VEGF165 or mouse VEGF165 were biotinylated and immobilized on streptavidin chips. The antibodies were serially diluted 2-fold from 100 nM to 0.78 nM in HBS-P (0.01M HEPES pH7.4, 0.15M NaCl, 0.005% v/v Polysorbate 20). For each antibody, all 8 dilutions were sequentially injected over a specific chip. Kinetic data were collected over time and were fit using the simultaneous global fit equation to yield affinity constants (KD values) for each bispecific antibody."}, "mouse DLL4-Fc": {"target": "mouse DLL4-Fc", "sequence (Q9JI71 27-519 limits assumed)": "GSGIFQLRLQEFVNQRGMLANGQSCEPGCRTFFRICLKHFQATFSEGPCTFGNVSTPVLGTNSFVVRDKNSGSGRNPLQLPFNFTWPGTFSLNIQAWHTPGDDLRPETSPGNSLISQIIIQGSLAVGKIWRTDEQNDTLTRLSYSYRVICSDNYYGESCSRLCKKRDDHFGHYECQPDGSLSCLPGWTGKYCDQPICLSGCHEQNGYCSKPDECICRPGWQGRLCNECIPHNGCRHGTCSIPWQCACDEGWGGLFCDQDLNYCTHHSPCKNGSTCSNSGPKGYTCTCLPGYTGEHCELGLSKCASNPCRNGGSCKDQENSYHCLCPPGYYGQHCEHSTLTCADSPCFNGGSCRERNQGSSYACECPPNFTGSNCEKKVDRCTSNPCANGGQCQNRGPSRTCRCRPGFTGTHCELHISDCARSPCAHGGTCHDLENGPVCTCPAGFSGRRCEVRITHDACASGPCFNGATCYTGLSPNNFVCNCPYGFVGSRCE", "assay": "Biacore binding affinity (KD) to mouse DLL4", "details": "Biacore 2000, mouse DLL4-Fc on CM5 chip; read-out: KD mDLL4", "protocol": "as §1"}, "[1]": {"test_system": "DLL4-induced Notch signaling", "assay": "DLL4-induced Notch signaling luciferase reporter assay in Notch2-expressing PC3 cells", "format": "cell-based", "details": "coated human DLL4 100 ng/well, antibody 20 to 0.064 ug/ml", "protocol": "FIG. 4. Inhibition of DLL4-induced Notch signaling by anti-VEGF/anti-DLL4 bispecific antibodies. Luciferase activity was measured using a dual luciferase assay kit with firefly luciferase activity normalized to Renilla luciferase activity. 219R45-MB-21M18 (-●-); 219R45-MB-21R79 (-▪-); 21M18 (-∘-); 21R79 (-□-).\nHuman PC3 cells were transfected with an expression vector encoding a full-length human Notch2 receptor and a firefly luciferase reporter vector (8× CBF-luciferase reporter) that is responsive to Notch signaling. The cells were also transfected with a Renilla luciferase reporter (Promega, Madison, Wis.) as an internal control for transfection efficiency. Purified human DLL4 protein was coated onto 96-well plates at 100 ng/well and Notch2-expressing PC3-luc cells were added to the wells. Anti-VEGF/anti-DLL4 bispecific antibodies 219R45-MB-21M18, 219R45-MB-21R79, parental anti-DLL4 antibodies 21M18, 21R79 or a control antibody LZ1 were serially diluted 5-fold from 20 ug/ml to 0.064 ug/ml, added to the appropriate wells, and incubated overnight. Luciferase activity was determined using a dual luciferase assay kit (Promega, Madison, Wis.) with firefly luciferase activity normalized to Renilla luciferase activity."}, "[2]": {"test_system": "OMP-PN8 pancreatic tumor cells", "assay": "Tumorigenicity of OMP-PN8 pancreatic tumor cells after treatment (serial transplantation)", "format": "in vivo, NOD/SCID mice", "details": "90 cells from treated tumors transplanted, day 55, no treatment; 21M18, bevacizumab 15 mg/kg, bispecifics 30 mg/kg, gemcitabine 70 mg/kg, four weeks", "protocol": "FIG. 6. Tumorigenicity of pancreatic tumor cells after treatment with anti-VEGF/anti-DLL4 bispecific antibodies. OMP-PN8 tumor cells from mice treated with control antibody, anti-hDLL4 antibody 21M18, anti-VEGF antibody bevacizumab, or anti-VEGF/anti-DLL4 bispecific antibodies 219R45-MB-21M18 or 219R45-MB-21R79 with or without gemcitabine were processed to single cell suspensions, and serially transplanted into mice. 90 cells from each treatment group were injected subcutaneously into NOD/SCID mice. Tumors were allowed to grow with no treatment. Data is shown as tumor volume (mm^3) on day 55. Tumor frequency is shown as number of tumors over total number of mice injected in each group.\nMice bearing OMP-PN8 pancreatic tumors were treated with control antibody (15 mg/kg), anti-hDLL4 antibody 21M18 (15 mg/kg), anti-VEGF antibody bevacizumab (15 mg/kg), or anti-VEGF/anti-DLL4 bispecific antibodies 219R45-MB-21M18 or 219R45-MB-21R79 (30 mg/kg) with or without gemcitabine (70 mg/kg). Following four weeks of treatment, tumors were harvested, processed to single cell suspensions and the human tumor cells were purified by immunomagnetic depletion of murine cells. 90 human tumor cells from each treatment group were transferred to a new cohort of mice (n=10 mice/group). Tumors were allowed to grow for 55 days without any treatment and tumor volumes were measured with electronic calipers."}, "OMP-C8 colon tumor": {"test_system": "OMP-C8 colon tumor", "assay": "Tumorigenicity of OMP-C8 colon tumors after treatment (serial transplantation)", "format": "in vivo, NOD/SCID mice", "details": "150 cells from treated tumors transplanted, day 68; without irinotecan combination", "protocol": "FIG. 10. Tumorigenicity of […] colon tumor cells after treatment with anti-VEGF/anti-DLL4 bispecific antibodies. Tumors from mice treated with control antibody, anti-hDLL4 antibody 21M18, anti-VEGF antibody bevacizumab, a combination of 21M18 and bevacizumab, or anti-VEGF/anti-DLL4 bispecific antibodies 219R45-MB-21M18 or 219R45-MB-21R79 with or without irinotecan were processed to single cell suspensions, and serially transplanted into mice. 150 cells from each treatment group were injected subcutaneously into NOD/SCID mice. Tumors were allowed to grow with no treatment. Data are shown as tumor volume (mm^3) on day 68.\nSingle cell suspensions of OMP-C8 colon tumor xenografts (20,000 cells) were injected subcutaneously into the flanks of 6-8 week old NOD/SCID mice. Tumors were allowed to grow for 33 days until they reached an average volume of 300 mm^3. The mice were randomized (n=5 per group) and treated with anti-DLL4 antibody 21M18, anti-VEGF antibody bevacizumab, a combination of antibodies 21M18 and bevacizumab, anti-VEGF/anti-DLL4 bispecific antibody 219R45-MB-21M18, anti-VEGF/anti-DLL4 bispecific antibody 219R45-MB-21R79, or control antibody, either in combination with irinotecan or without irinotecan. Antibodies and irinotecan were dosed weekly by injection into the intraperitoneal cavity. Antibodies 21M18 and bevacizumab were dosed at 7.5 mg/kg, bispecific antibodies 219R45-MB-21M18 and 219R45-MB-21R79 were dosed at 15 mg/kg, and irinotecan was dosed at 45 mg/kg. Tumors were harvested after 4 weeks, processed into single cell suspensions, and the human tumor cells were isolated. 150 tumor cells from each experimental group were injected subcutaneously into a new cohort of mice (n=10 per group) and tumors were allowed to grow without treatment. Tumor growth was monitored and tumor volumes were measured with electronic calipers."}},
  "data": [
    {"molecule": "21M18: anti-DLL4 antibody, parental antibody (Hoey et al., 2009; U.S. Pat. No. 7,750,124) (antibody, V domains shown) VH: QVQLVQSGAEVKKPGASVKISCKASGYSFTAYYIHWVKQAPGQGLEWIGYISSYNGATNYNQKFKGRVTFTTDTSTSTAYMELRSLRSDDTAVYYCARDYDYDVGMDYWGQGTLVTVSS VL: DIVMTQSPDSLAVSLGERATISCRASESVDNYGISFMKWFQQKPGQPPKLLIYAASNQGSGVPDRFSGSGSGTDFTLTISSLQAEDVAVYYCQQSKEVPWTFGGGTKVEIK", "values": [
      {"measurement": "Kd", "setting": "mouse VEGF165; Biacore 2000, biotinylated mouse VEGF165 on streptavidin chip, read-out: KD mVEGF", "value": "> 100", "unit": "nM"},
      {"measurement": "Kd", "setting": "mouse DLL4-Fc", "value": "> 100", "unit": "nM"},
      {"measurement": "inhibition of DLL4-induced Notch signaling", "setting": "[1]", "value": "inhibited DLL4-induced Notch signaling"},
      {"measurement": "tumor growth frequency (mice with tumors)", "setting": "[2]", "value": "5 out of 10"},
      {"measurement": "tumor growth frequency, single agents", "setting": "OMP-C8 colon tumor", "value": "reduced tumor growth frequency"}
    ]},
    {"molecule": "219R45-MB-21R79: anti-VEGF/anti-DLL4 monovalent/bispecific antibody, heavy chains SEQ ID NO:7 and 6, light chains SEQ ID NO:8 (antibody, 21R79 Heavy chain without predicted signal sequence; Light chain without predicted signal sequence) heavy 1: QVQLVQSGAEVKKPGASVKVSCKASGYTFTNYWMHWVRQAPGQGLEWMGDINPSNGRTSYKEKFKRRVTLSVDKSSSTAYMELSSLRSEDTAVYFCTIHYDDKYYPLMDYWGQGTLVTVSSASTKGPSVFPLAPCSRSTSESTAALGCLVKDYFPEPVTVSWNSGALTSGVHTFPAVLQSSGLYSLSSVVTVPSSNFGTQTYTCNVDHKPSNTKVDKTVERKCCVECPPCPAPPVAGPSVFLFPPKPKDTLMISRTPEVTCVVVDVSHEDPEVQFNWYVDGVEVHNAKTKPREEQFNSTFRVVSVLTVVHQDWLNGKEYKCKVSNKGLPAPIEKTISKTKGQPREPQVYTLPPSREKMTKNQVSLTCLVKGFYPSDIAVEWESNGQPENNYKTTPPMLKSDGSFFLYSKLTVDKSRWQQGNVFSCSVMHEALHNHYTQKSLSLSPGK heavy 2: QVQLVQSGAEVKKPGASVKISCKASGYSFTAYYIHWVKQAPGQGLEWIGYIANYNRATNYNQKFKGRVTFTTDTSTSTAYMELRSLRSDDTAVYYCARDYDYDVGMDYWGQGTLVTVSSASTKGPSVFPLAPCSRSTSESTAALGCLVKDYFPEPVTVSWNSGALTSGVHTFPAVLQSSGLYSLSSVVTVPSSNFGTQTYTCNVDHKPSNTKVDKTVERKCCVECPPCPAPPVAGPSVFLFPPKPKDTLMISRTPEVTCVVVDVSHEDPEVQFNWYVDGVEVHNAKTKPREEQFNSTFRVVSVLTVVHQDWLNGKEYKCKVSNKGLPAPIEKTISKTKGQPREPQVYTLPPSREEMTKNQVSLTCLVEGFYPSDIAVEWESNGQPENNYKTTPPMLDSDGSFFLYSELTVDKSRWQQGNVFSCSVMHEALHNHYTQKSLSLSPGK light: DIVMTQSPDSLAVSLGERATISCRASESVDNYGISFMKWFQQKPGQPPKLLIYAASNQGSGVPDRFSGSGSGTDFTLTISSLQAEDVAVYYCQQSKEVPWTFGGGTKVEIKRTVAAPSVIFPPSDEQLKSGTASVVCLLNNFYPREAKVQWKVDNALQSGNSQESVTEQDSKDSTYSLSSTLTLSKADYEKHKVYACEVTHQGLSSPVTKSFNRGEC", "values": [
      {"measurement": "binding to mouse VEGF (in words)", "setting": "mouse VEGF165", "value": "bind mouse VEGF"},
      {"measurement": "Kd", "setting": "mouse DLL4-Fc", "value": "> 100", "unit": "nM"},
      {"measurement": "inhibition of DLL4-induced Notch signaling", "setting": "[1]", "value": "inhibited DLL4-induced Notch signaling"},
      {"measurement": "tumor growth frequency (mice with tumors)", "setting": "[2]", "value": "4 out of 10"},
      {"measurement": "tumor growth frequency, single agents", "setting": "OMP-C8 colon tumor", "value": "reduced tumor growth frequency"}
    ]}
  ]
}
